For this experiment, the target named is Adenovirus 5 receptor (on HeLa cells). Kind of experiment: cell-based or functional assay.

Consider “Adenovirus 5 fiber protein (from UniProt P11818 1-581)”, for which the transduction of HeLa cells with Av1LacZ4 in the presence of competitor (beta-galactosidase positive cells, percent of control) fell in the range of 0.1 to 1 mug/ml.

Source of the values: patent publication US20070010016A1.
